From US20110158992A1 (SCHERING, published 2011)

T1: biotinylated huIL-23R-IgG (human, UniProt Q5VWK5 24-353, biotinylated)
T1 construct: not shown: human IgG1 Fc
T1 sequence: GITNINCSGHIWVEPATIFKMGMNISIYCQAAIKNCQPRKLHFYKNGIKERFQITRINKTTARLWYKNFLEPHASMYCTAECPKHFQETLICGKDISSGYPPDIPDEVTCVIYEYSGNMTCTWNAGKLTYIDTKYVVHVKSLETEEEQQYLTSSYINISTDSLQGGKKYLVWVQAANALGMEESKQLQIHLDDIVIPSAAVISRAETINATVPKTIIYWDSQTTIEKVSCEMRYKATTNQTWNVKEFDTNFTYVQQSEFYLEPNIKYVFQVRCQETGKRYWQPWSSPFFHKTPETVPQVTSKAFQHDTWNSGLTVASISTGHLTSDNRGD


molecular target: T1, biotinylated huIL-23R-IgG; assay: ECL binding assay, periplasmic Fab extracts, biotinylated huIL-23R-IgG; AUC vs parental 8B10 Fab
Source text: The N31T change was introduced as a result of affinity maturation experiments, as follows. An E. coli expression vector for expression into the periplasmic space was constructed encoding a chimeric Fab fragment of rat antibody 8B10 comprising rat variable domains, a human constant light chain domain (CL) and a human constant heavy chain domain CH1. Mutations were introduced using a QuikChange® site directed mutagenesis kit (Stratagene Inc., LaJolla, Calif., USA). Primers were designed to replace selected positions with either alanine, or by all 20 amino acids, using the NNK codon approach (N includes an equimolar mix of A/G/C/T and K includes only G/T). To reduce background, alanine mutants at each position were used as the template for the randomization step. Unpurified periplasmic extracts were then tested for human IL-23R binding activity using an electrochemiluminescence assay with biotinylated huIL-23R-IgG and goat anti-huFab-Ori-Tag for detection. The area under the curve was used to compare the binding activity of sequence variants to the original parental 8B10 Fab. Data were fitted using GraphPad Prism® 3.0 software (Graphpad Software inc., San Diego, Calif. USA).

Binding (% of w.t.)	Binder
38.7 % of w.t.	chimeric 8B10 Fab, VH N52A (Fab, V domains shown, Rat V domains with human CH1 and CL; E. coli periplasmic extract) VH: EVKLVESGGGLEQPKGSLKLSCTVSGFDFNSYGMSWVRQAPGKGLDLVADIASKSYNYATYYADSVKDRFTISRDDSQSMVYLEMDNLKTEDTALYYCTVHHSDYFEYWGQGVMVTVSS VL: DIQMTQSPASLSASLGETVSIECLASEDIYNNLAWYQQKPGKSPQLLIYHASSLQDGVPSRFSGSGSGTQYSLKINSLESEDAATYFCLQDSEYPPTFGGGTKLELKR
52.6 % of w.t.	chimeric 8B10 Fab, VH R74A (Fab, V domains shown, Rat V domains with human CH1 and CL; E. coli periplasmic extract) VH: EVKLVESGGGLEQPKGSLKLSCTVSGFDFNSYGMSWVRQAPGKGLDLVADINSKSYNYATYYADSVKDRFTISADDSQSMVYLEMDNLKTEDTALYYCTVHHSDYFEYWGQGVMVTVSS VL: DIQMTQSPASLSASLGETVSIECLASEDIYNNLAWYQQKPGKSPQLLIYHASSLQDGVPSRFSGSGSGTQYSLKINSLESEDAATYFCLQDSEYPPTFGGGTKLELKR
88.7 % of w.t.	chimeric 8B10 Fab, VH S53A (Fab, V domains shown, Rat V domains with human CH1 and CL; E. coli periplasmic extract; also called S53A (heavy chain variable domain)) VH: EVKLVESGGGLEQPKGSLKLSCTVSGFDFNSYGMSWVRQAPGKGLDLVADINAKSYNYATYYADSVKDRFTISRDDSQSMVYLEMDNLKTEDTALYYCTVHHSDYFEYWGQGVMVTVSS VL: DIQMTQSPASLSASLGETVSIECLASEDIYNNLAWYQQKPGKSPQLLIYHASSLQDGVPSRFSGSGSGTQYSLKINSLESEDAATYFCLQDSEYPPTFGGGTKLELKR
65.7 % of w.t.	chimeric 8B10 Fab, VH S103A (Fab, V domains shown, Rat V domains with human CH1 and CL; E. coli periplasmic extract) VH: EVKLVESGGGLEQPKGSLKLSCTVSGFDFNSYGMSWVRQAPGKGLDLVADINSKSYNYATYYADSVKDRFTISRDDSQSMVYLEMDNLKTEDTALYYCTVHHADYFEYWGQGVMVTVSS VL: DIQMTQSPASLSASLGETVSIECLASEDIYNNLAWYQQKPGKSPQLLIYHASSLQDGVPSRFSGSGSGTQYSLKINSLESEDAATYFCLQDSEYPPTFGGGTKLELKR
71.1 % of w.t.	chimeric 8B10 Fab, VH K54A (Fab, V domains shown, Rat V domains with human CH1 and CL; E. coli periplasmic extract) VH: EVKLVESGGGLEQPKGSLKLSCTVSGFDFNSYGMSWVRQAPGKGLDLVADINSASYNYATYYADSVKDRFTISRDDSQSMVYLEMDNLKTEDTALYYCTVHHSDYFEYWGQGVMVTVSS VL: DIQMTQSPASLSASLGETVSIECLASEDIYNNLAWYQQKPGKSPQLLIYHASSLQDGVPSRFSGSGSGTQYSLKINSLESEDAATYFCLQDSEYPPTFGGGTKLELKR
123 % of w.t.	chimeric 8B10 Fab, VH I51A (Fab, V domains shown, Rat V domains with human CH1 and CL; E. coli periplasmic extract) VH: EVKLVESGGGLEQPKGSLKLSCTVSGFDFNSYGMSWVRQAPGKGLDLVADANSKSYNYATYYADSVKDRFTISRDDSQSMVYLEMDNLKTEDTALYYCTVHHSDYFEYWGQGVMVTVSS VL: DIQMTQSPASLSASLGETVSIECLASEDIYNNLAWYQQKPGKSPQLLIYHASSLQDGVPSRFSGSGSGTQYSLKINSLESEDAATYFCLQDSEYPPTFGGGTKLELKR
100 % of w.t.	chimeric 8B10 Fab, VH S31A (Fab, V domains shown, Rat V domains with human CH1 and CL; E. coli periplasmic extract) VH: EVKLVESGGGLEQPKGSLKLSCTVSGFDFNAYGMSWVRQAPGKGLDLVADINSKSYNYATYYADSVKDRFTISRDDSQSMVYLEMDNLKTEDTALYYCTVHHSDYFEYWGQGVMVTVSS VL: DIQMTQSPASLSASLGETVSIECLASEDIYNNLAWYQQKPGKSPQLLIYHASSLQDGVPSRFSGSGSGTQYSLKINSLESEDAATYFCLQDSEYPPTFGGGTKLELKR
105 % of w.t.	chimeric 8B10 Fab, VH S55A (Fab, V domains shown, Rat V domains with human CH1 and CL; E. coli periplasmic extract) VH: EVKLVESGGGLEQPKGSLKLSCTVSGFDFNSYGMSWVRQAPGKGLDLVADINSKAYNYATYYADSVKDRFTISRDDSQSMVYLEMDNLKTEDTALYYCTVHHSDYFEYWGQGVMVTVSS VL: DIQMTQSPASLSASLGETVSIECLASEDIYNNLAWYQQKPGKSPQLLIYHASSLQDGVPSRFSGSGSGTQYSLKINSLESEDAATYFCLQDSEYPPTFGGGTKLELKR

More lines, now with the values behind:

Binder	Binding (% of w.t.)
chimeric 8B10 Fab, VH H102A (Fab, V domains shown, Rat V domains with human CH1 and CL; E. coli periplasmic extract) VH: EVKLVESGGGLEQPKGSLKLSCTVSGFDFNSYGMSWVRQAPGKGLDLVADINSKSYNYATYYADSVKDRFTISRDDSQSMVYLEMDNLKTEDTALYYCTVHASDYFEYWGQGVMVTVSS VL: DIQMTQSPASLSASLGETVSIECLASEDIYNNLAWYQQKPGKSPQLLIYHASSLQDGVPSRFSGSGSGTQYSLKINSLESEDAATYFCLQDSEYPPTFGGGTKLELKR	84.2 % of w.t.
chimeric 8B10 Fab, VH G33A (Fab, V domains shown, Rat V domains with human CH1 and CL; E. coli periplasmic extract) VH: EVKLVESGGGLEQPKGSLKLSCTVSGFDFNSYAMSWVRQAPGKGLDLVADINSKSYNYATYYADSVKDRFTISRDDSQSMVYLEMDNLKTEDTALYYCTVHHSDYFEYWGQGVMVTVSS VL: DIQMTQSPASLSASLGETVSIECLASEDIYNNLAWYQQKPGKSPQLLIYHASSLQDGVPSRFSGSGSGTQYSLKINSLESEDAATYFCLQDSEYPPTFGGGTKLELKR	27.4 % of w.t.
chimeric 8B10 Fab, VH E107A (Fab, V domains shown, Rat V domains with human CH1 and CL; E. coli periplasmic extract) VH: EVKLVESGGGLEQPKGSLKLSCTVSGFDFNSYGMSWVRQAPGKGLDLVADINSKSYNYATYYADSVKDRFTISRDDSQSMVYLEMDNLKTEDTALYYCTVHHSDYFAYWGQGVMVTVSS VL: DIQMTQSPASLSASLGETVSIECLASEDIYNNLAWYQQKPGKSPQLLIYHASSLQDGVPSRFSGSGSGTQYSLKINSLESEDAATYFCLQDSEYPPTFGGGTKLELKR	61 % of w.t.
chimeric 8B10 Fab, VH A49G (Fab, V domains shown, Rat V domains with human CH1 and CL; E. coli periplasmic extract) VH: EVKLVESGGGLEQPKGSLKLSCTVSGFDFNSYGMSWVRQAPGKGLDLVGDINSKSYNYATYYADSVKDRFTISRDDSQSMVYLEMDNLKTEDTALYYCTVHHSDYFEYWGQGVMVTVSS VL: DIQMTQSPASLSASLGETVSIECLASEDIYNNLAWYQQKPGKSPQLLIYHASSLQDGVPSRFSGSGSGTQYSLKINSLESEDAATYFCLQDSEYPPTFGGGTKLELKR	79 % of w.t.
chimeric 8B10 Fab, VH F106A (Fab, V domains shown, Rat V domains with human CH1 and CL; E. coli periplasmic extract) VH: EVKLVESGGGLEQPKGSLKLSCTVSGFDFNSYGMSWVRQAPGKGLDLVADINSKSYNYATYYADSVKDRFTISRDDSQSMVYLEMDNLKTEDTALYYCTVHHSDYAEYWGQGVMVTVSS VL: DIQMTQSPASLSASLGETVSIECLASEDIYNNLAWYQQKPGKSPQLLIYHASSLQDGVPSRFSGSGSGTQYSLKINSLESEDAATYFCLQDSEYPPTFGGGTKLELKR	71.1 % of w.t.
chimeric 8B10 Fab, VH H101A (Fab, V domains shown, Rat V domains with human CH1 and CL; E. coli periplasmic extract) VH: EVKLVESGGGLEQPKGSLKLSCTVSGFDFNSYGMSWVRQAPGKGLDLVADINSKSYNYATYYADSVKDRFTISRDDSQSMVYLEMDNLKTEDTALYYCTVAHSDYFEYWGQGVMVTVSS VL: DIQMTQSPASLSASLGETVSIECLASEDIYNNLAWYQQKPGKSPQLLIYHASSLQDGVPSRFSGSGSGTQYSLKINSLESEDAATYFCLQDSEYPPTFGGGTKLELKR	29.1 % of w.t.
chimeric 8B10 Fab, VH D50A (Fab, V domains shown, Rat V domains with human CH1 and CL; E. coli periplasmic extract) VH: EVKLVESGGGLEQPKGSLKLSCTVSGFDFNSYGMSWVRQAPGKGLDLVAAINSKSYNYATYYADSVKDRFTISRDDSQSMVYLEMDNLKTEDTALYYCTVHHSDYFEYWGQGVMVTVSS VL: DIQMTQSPASLSASLGETVSIECLASEDIYNNLAWYQQKPGKSPQLLIYHASSLQDGVPSRFSGSGSGTQYSLKINSLESEDAATYFCLQDSEYPPTFGGGTKLELKR	67.3 % of w.t.
chimeric 8B10 Fab, VH D104A (Fab, V domains shown, Rat V domains with human CH1 and CL; E. coli periplasmic extract) VH: EVKLVESGGGLEQPKGSLKLSCTVSGFDFNSYGMSWVRQAPGKGLDLVADINSKSYNYATYYADSVKDRFTISRDDSQSMVYLEMDNLKTEDTALYYCTVHHSAYFEYWGQGVMVTVSS VL: DIQMTQSPASLSASLGETVSIECLASEDIYNNLAWYQQKPGKSPQLLIYHASSLQDGVPSRFSGSGSGTQYSLKINSLESEDAATYFCLQDSEYPPTFGGGTKLELKR	1.5 % of w.t.
